Experimental data taken from article PMC11166458, “Caskin2 is a novel talin- and Abi1-binding protein that promotes cell motility” (Journal of Cell Science, 2024).
No end group written: not given here.

Biological target: talin-R7/R8 (residues 1358–1653) (mouse, UniProt P26039 1358-1653)
Test: MST; Atto488-labeled peptide at 50–200 nM, serial dilution of recombinant R7R8 talin; 20 mM Tris-HCl pH 7.5, 200 mM NaCl, 1 mM TCEP, 0.05% Tween-20; Monolith NT.115
Conditions: both partners purified

Kd: ~2.7 µM
B1: Atto488-labeled Caskin2-LD peptide (peptide, UniProt Q8WXE0 1187-1202, looked up)
peptide: STMFDALADQLDAMLD
modifications: also: Atto488 label
notes: Caskin2 C-terminal LD motif peptide; limits 1187–1202 are printed for the Caskin2-LD peptide in the legend of the structure; The text names L1183 as a contact residue of the peptide, which lies outside 1187–1202; source: synthetic peptide (MPIB Core Facility)
